Target: JMJD8-FLAG-HA (HeLa-JMJD8-FLAG-HA) (human) (UniProt Q96S16)
Test: SEC; gel filtration (Superdex 200) of total cell lysate of HeLa S3 cells stably expressing JMJD8-FLAG-HA; fractions immunoblotted with anti-FLAG

In the case of “JMJD8-FLAG-HA (HeLa-JMJD8-FLAG-HA) (from UniProt Q96S16-1 24-264) (natural protein)”, the stoichiometry N is reported as 2.

Reference: PMC5684140
